We go through 17 molecules from patent publication US20250145711A1 (Janssen / Centocor, published 2025).

The assay addresses T1, TRCW5 antigen (CD3δε-Fc-Avi) (biotinylated (site not stated)).
T1 construct: also called recombinant CD3
As to the kind of experiment: ELISA after heat. On the technique in general: ELISA stands for enzyme-linked immunosorbent assay.

T1 sequence (chain, as listed by the source mutant limits assumed): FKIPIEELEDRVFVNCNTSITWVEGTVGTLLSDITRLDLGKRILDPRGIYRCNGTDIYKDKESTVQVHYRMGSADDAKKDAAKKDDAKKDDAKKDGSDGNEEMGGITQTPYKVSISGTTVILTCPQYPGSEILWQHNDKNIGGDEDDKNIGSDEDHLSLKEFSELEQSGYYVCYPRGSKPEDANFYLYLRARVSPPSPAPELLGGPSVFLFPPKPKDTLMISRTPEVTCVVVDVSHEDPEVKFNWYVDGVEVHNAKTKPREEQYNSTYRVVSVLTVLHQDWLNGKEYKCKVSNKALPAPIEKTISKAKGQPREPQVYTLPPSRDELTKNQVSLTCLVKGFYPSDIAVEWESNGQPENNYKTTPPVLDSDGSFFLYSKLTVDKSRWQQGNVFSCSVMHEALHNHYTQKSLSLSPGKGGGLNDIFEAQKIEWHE

B1: CD3B2026 (scFv)
scFv: QVQLVQSGAEVKKPGSSVKVSCKASGYTFTRSTMHWVKQAPGQGLEWIGYINPSSAYTNYNQKFQGRVTLTADKSTSTAYMELSSLRSEDTAVYYCASPQVHYDYNGFPYWGQGTLVTVSSGGSEGKSSGSGSESKSTGGSEIVLTQSPATLSASPGERVTLSCSASSSVSYMNWYQQKPGTAPRRWIYDSSKLASGVPARFSGSGSGRDYTLTISSLEPEDFAVYYCQQWSRNPPTFGGGTKVEIK
For the molecule B1, the “% Retained 55° C.” value was 106%, the “% Retained 60° C.” value worked out at 98% and the “% Retained 65° C.” value worked out at 29%.

B2: CD3B2047 (scFv)
scFv: QVQLVQSGAEVKKPGSSVKVSCKASGYTFTRSTMHWVKQAPGQGLEWIGYINPSSAYTNYNQKFQGRVTLTADKSTSTAYMELSSLRSEDTAVYYCASPQVHYDYNGFPYWGQGTLVTVSSGGSEGKSSGSGSESKSTGGSEIVLTQSPATLSASPGERVTLSCSASSSVSYMNWYQQKPGQSPRRLIYDSSKLASGVPARFSGSGSGRDYTLTISSLEPEDFAVYYCQQWSRNPPTFGGGTKVEIK
B2: the “% Retained 55° C.” value is 106%, the “% Retained 60° C.” value turned out to be 98% and the “% Retained 65° C.” value turned out to be 15%.

B3: CD3B2050 (scFv)
scFv: QVQLVQSGAEVKKPGSSVKVSCKASGYTFTRSTMHWVKQAPGQGLEWMGYINPSSAYTNYNQKFQGRVTLTADKSTSTAYMELSSLRSEDTAVYYCASPQVHYDYNGFPYWGQGTLVTVSSGGSEGKSSGSGSESKSTGGSEIVLTQSPATLSASPGERVTLSCSASSSVSYMNWYQQKPGQSPRRLIYDSSKLASGVPARFSGSGSGRDYTLTISSLEPEDFAVYYCQQWSRNPPTFGGGTKVEIK
Consider B3, for which the “% Retained 55° C.” value came out at 108%, the “% Retained 60° C.” value worked out at 102% and the “% Retained 65° C.” value turned out to be 41%.

B4: CD3B2028 (scFv)
scFv: QVQLVQSGAEVKKPGSSVKVSCKASGYTFTRSTMHWVKQAPGQGLEWIGYINPSSAYTNYNQKFQGRVTLTADKSTSTAYMELSSLRSEDTAVYYCASPQVHYDYNGFPYWGQGTLVTVSSGGSEGKSSGSGSESKSTGGSEIVLTQSPATLSASPGERVTLSCSASSSVSYMNWYQQKPGTAPRRLIYDSSKLASGVPARFSGSGSGRDYTLTISSLEPEDFAVYYCQQWSRNPPTFGGGTKVEIK
Take B4: the “% Retained 55° C.” value was 104%, the “% Retained 60° C.” value stood at 92% and the “% Retained 65° C.” value was 15%.

B5: CD3B2053 (scFv)
scFv: QVQLVQSGAEVKKPGSSVKVSCKASGYTFTRSTMHWVKQAPGQGLEWMGYINPSSAYTNYAQKFQGRVTLTADKSTSTAYMELSSLRSEDTAVYYCASPQVHYDYNGFPYWGQGTLVTVSSGGSEGKSSGSGSESKSTGGSEIVLTQSPATLSASPGERVTLSCSASSSVSYMNWYQQKPGQSPRRLIYDSSKLASGVPARFSGSGSGRDYTLTISSLEPEDFAVYYCQQWSRNPPTFGGGTKVEIK
For B5, the “% Retained 55° C.” value was 115%, the “% Retained 60° C.” value is 112% and the “% Retained 65° C.” value was determined as 30%.

B6: CD3B2057 (scFv)
scFv: QVQLVQSGAEVKKPGSSVKVSCKASGYTFTRSTMHWVRQAPGQGLEWIGYINPSSAYTNYNQKFQGRVTLTADKSTSTAYMELSSLRSEDTAVYYCASPQVHYDYNGFPYWGQGTLVTVSSGGSEGKSSGSGSESKSTGGSEIVLTQSPATLSASPGERVTLSCSASSSVSYMNWYQQKPGQAPRRLIYDSSKLASGVPARFSGSGSGRDYTLTISSLEPEDFAVYYCQQWSRNPPTFGGGTKVEIK
Turning to B6, the “% Retained 55° C.” value was 92%, the “% Retained 60° C.” value amounted to 66% and the “% Retained 65° C.” value was 3%.

B7: CD3B2040 (scFv)
scFv: QVQLVQSGAEVKKPGSSVKVSCKASGYTFTRSTMHWVKQAPGQGLEWMGYINPSSAYTNYAQKFQGRVTLTADKSTSTAYMELSSLRSEDTAVYYCASPQVHYDYNGFPYWGQGTLVTVSSGGSEGKSSGSGSESKSTGGSEIVLTQSPATLSASPGERVTLSCSASSSVSYMNWYQQKPGQAPRRWIYDSSKLASGVPARFSGSGSGRDYTLTISSLEPEDFAVYYCQQWSRNPPTFGGGTKVEIK
Turning to B7, the “% Retained 55° C.” value is 107%, the “% Retained 60° C.” value worked out at 106% and the “% Retained 65° C.” value was 52%.

B8: CD3B2049 (scFv)
scFv: QVQLVQSGAEVKKPGSSVKVSCKASGYTFTRSTMHWVKQAPGQGLEWMGYINPSSAYTNYNQKFQGRVTLTADKSTSTAYMELSSLRSEDTAVYYCASPQVHYDYNGFPYWGQGTLVTVSSGGSEGKSSGSGSESKSTGGSEIVLTQSPATLSASPGERVTLSCSASSSVSYMNWYQQKPGTSPRRWIYDSSKLASGVPARFSGSGSGRDYTLTISSLEPEDFAVYYCQQWSRNPPTFGGGTKVEIK
For B8, the “% Retained 55° C.” value turned out to be 108%, the “% Retained 60° C.” value was 105% and the “% Retained 65° C.” value is 29%.

B9: CD3B2027 (scFv)
scFv: QVQLVQSGAEVKKPGSSVKVSCKASGYTFTRSTMHWVKQAPGQGLEWIGYINPSSAYTNYNQKFQGRVTLTADKSTSTAYMELSSLRSEDTAVYYCASPQVHYDYNGFPYWGQGTLVTVSSGGSEGKSSGSGSESKSTGGSEIVLTQSPATLSASPGERVTLSCSASSSVSYMNWYQQKPGTSPRRLIYDSSKLASGVPARFSGSGSGRDYTLTISSLEPEDFAVYYCQQWSRNPPTFGGGTKVEIK
As for B9, the “% Retained 55° C.” value stood at 104%, the “% Retained 60° C.” value is 93% and the “% Retained 65° C.” value came out at 9%.

B10: CD3B2056 (scFv)
scFv: QVQLVQSGAEVKKPGSSVKVSCKASGYTFTRSTMHWVRQAPGQGLEWIGYINPSSAYTNYNQKFQGRVTLTADKSTSTAYMELSSLRSEDTAVYYCASPQVHYDYNGFPYWGQGTLVTVSSGGSEGKSSGSGSESKSTGGSEIVLTQSPATLSASPGERVTLSCSASSSVSYMNWYQQKPGQSPRRLIYDSSKLASGVPARFSGSGSGRDYTLTISSLEPEDFAVYYCQQWSRNPPTFGGGTKVEIK
As to B10, the “% Retained 55° C.” value stood at 101%, the “% Retained 60° C.” value was 80% and the “% Retained 65° C.” value was found to be 9%.

B11: CD3B2055 (scFv)
scFv: QVQLVQSGAEVKKPGSSVKVSCKASGYTFTRSTMHWVRQAPGQGLEWIGYINPSSAYTNYNQKFQGRVTLTADKSTSTAYMELSSLRSEDTAVYYCASPQVHYDYNGFPYWGQGTLVTVSSGGSEGKSSGSGSESKSTGGSEIVLTQSPATLSASPGERVTLSCSASSSVSYMNWYQQKPGTSPRRWIYDSSKLASGVPARFSGSGSGRDYTLTISSLEPEDFAVYYCQQWSRNPPTFGGGTKVEIK
Consider B11, for which the “% Retained 55° C.” value amounted to 102%, the “% Retained 60° C.” value worked out at 96% and the “% Retained 65° C.” value was found to be 11%.

B12: CD3B2054 (scFv)
scFv: QVQLVQSGAEVKKPGSSVKVSCKASGYTFTRSTMHWVKQAPGQGLEWMGYINPSSAYTNYAQKFQGRVTLTADKSTSTAYMELSSLRSEDTAVYYCASPQVHYDYNGFPYWGQGTLVTVSSGGSEGKSSGSGSESKSTGGSEIVLTQSPATLSASPGERVTLSCSASSSVSYMNWYQQKPGQAPRRLIYDSSKLASGVPARFSGSGSGRDYTLTISSLEPEDFAVYYCQQWSRNPPTFGGGTKVEIK
With B12, the “% Retained 55° C.” value was found to be 106%, the “% Retained 60° C.” value amounted to 100% and the “% Retained 65° C.” value turned out to be 23%.

B13: CD3B2036 (scFv)
scFv: QVQLVQSGAEVKKPGSSVKVSCKASGYTFTRSTMHWVKQAPGQGLEWMGYINPSSAYTNYAQKFQGRVTLTADKSTSTAYMELSSLRSEDTAVYYCASPQVHYDYNGFPYWGQGTLVTVSSGGSEGKSSGSGSESKSTGGSEIVLTQSPATLSASPGERVTLSCSASSSVSYMNWYQQKPGTAPRRWIYDSSKLASGVPARFSGSGSGRDYTLTISSLEPEDFAVYYCQQWSRNPPTFGGGTKVEIK
On to B13, for which the “% Retained 55° C.” value is 108%, the “% Retained 60° C.” value worked out at 105% and the “% Retained 65° C.” value is 35%.

B14: CD3B2046 (scFv)
scFv: QVQLVQSGAEVKKPGSSVKVSCKASGYTFTRSTMHWVKQAPGQGLEWIGYINPSSAYTNYNQKFQGRVTLTADKSTSTAYMELSSLRSEDTAVYYCASPQVHYDYNGFPYWGQGTLVTVSSGGSEGKSSGSGSESKSTGGSEIVLTQSPATLSASPGERVTLSCSASSSVSYMNWYQQKPGTSPRRWIYDSSKLASGVPARFSGSGSGRDYTLTISSLEPEDFAVYYCQQWSRNPPTFGGGTKVEIK
On to B14, for which the “% Retained 55° C.” value came out at 111%, the “% Retained 60° C.” value came out at 113% and the “% Retained 65° C.” value amounted to 30%.

B15: CD3B2032 (scFv)
scFv: QVQLVQSGAEVKKPGSSVKVSCKASGYTFTRSTMHWVKQAPGQGLEWMGYINPSSAYTNYNQKFQGRVTLTADKSTSTAYMELSSLRSEDTAVYYCASPQVHYDYNGFPYWGQGTLVTVSSGGSEGKSSGSGSESKSTGGSEIVLTQSPATLSASPGERVTLSCSASSSVSYMNWYQQKPGTSPRRLIYDSSKLASGVPARFSGSGSGRDYTLTISSLEPEDFAVYYCQQWSRNPPTFGGGTKVEIK
Turning to B15, the “% Retained 55° C.” value amounted to 106%, the “% Retained 60° C.” value is 88% and the “% Retained 65° C.” value is 20%.

B16: CD3B2048 (scFv)
scFv: QVQLVQSGAEVKKPGSSVKVSCKASGYTFTRSTMHWVKQAPGQGLEWIGYINPSSAYTNYNQKFQGRVTLTADKSTSTAYMELSSLRSEDTAVYYCASPQVHYDYNGFPYWGQGTLVTVSSGGSEGKSSGSGSESKSTGGSEIVLTQSPATLSASPGERVTLSCSASSSVSYMNWYQQKPGQAPRRLIYDSSKLASGVPARFSGSGSGRDYTLTISSLEPEDFAVYYCQQWSRNPPTFGGGTKVEIK
B16: the “% Retained 55° C.” value was 105%, the “% Retained 60° C.” value came to 95% and the “% Retained 65° C.” value turned out to be 22%.

B17: CD3B2052 (scFv)
scFv: QVQLVQSGAEVKKPGSSVKVSCKASGYTFTRSTMHWVKQAPGQGLEWMGYINPSSAYTNYAQKFQGRVTLTADKSTSTAYMELSSLRSEDTAVYYCASPQVHYDYNGFPYWGQGTLVTVSSGGSEGKSSGSGSESKSTGGSEIVLTQSPATLSASPGERVTLSCSASSSVSYMNWYQQKPGTSPRRWIYDSSKLASGVPARFSGSGSGRDYTLTISSLEPEDFAVYYCQQWSRNPPTFGGGTKVEIK
For the molecule B17, the “% Retained 55° C.” value was 112%, the “% Retained 60° C.” value is 111% and the “% Retained 65° C.” value stood at 25%.
